System: Escherichia coli TOP10
Assay: shrunken log2 fold change of peptide-encoding DNA abundance (4.5 h post-induction vs induction); higher = less antimicrobial activity (less host growth inhibition)
Conditions: time post-induction: 4.5 h; library: site-saturation at positions 5, 18, 19, 20
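Further: peptides expressed intracellularly from a pBAD plasmid library in pooled LB shake-flask culture, induced with 0.3% L-arabinose, DNA abundance read by NGS, three biological replicates, DESeq2 with apeglm shrinkage.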

Going from RRIRERPPRLPRPRPRPRTWPRP to RRIRPRPPRLPRPRPRPVICPRP, the “shrunken log2 fold change” value rises from -0.149 to 0.0853.

RRIRCRPPRLPRPRPRPFWHPRP and RRIRYRPPRLPRPRPRPEVDPRP are within 0.2 log units of each other in “shrunken log2 fold change” value: -0.0854 for the first, -0.191 for the second.

RRIRGRPPRLPRPRPRPKCLPRP and RRIRGRPPRLPRPRPRPIIMPRP are within 0.2 log units of each other in “shrunken log2 fold change” value: -0.0243 for the first, -0.129 for the second.

RRIRFRPPRLPRPRPRPYHCPRP and RRIRIRPPRLPRPRPRPPDQPRP are within 0.2 log units of each other in “shrunken log2 fold change” value: 0.0331 for the first, -0.0864 for the second.

RRIRTRPPRLPRPRPRPRILPRP and RRIRARPPRLPRPRPRPQIFPRP are within 0.2 log units of each other in “shrunken log2 fold change” value: -0.0615 for the first, -0.0149 for the second.

Compared with RRIRMRPPRLPRPRPRPAFRPRP, RRIRFRPPRLPRPRPRPVTWPRP is lower in “shrunken log2 fold change” value: 0.214 for the first, -0.271 for the second.

RRIRVRPPRLPRPRPRPLGCPRP and RRIRRRPPRLPRPRPRPDMMPRP are within 0.2 log units of each other in “shrunken log2 fold change” value: -0.0466 for the first, -0.137 for the second.

Compared with RRIRRRPPRLPRPRPRPDAMPRP, RRIRFRPPRLPRPRPRPHMDPRP is lower in “shrunken log2 fold change” value: 0.336 for the first, -1.29 for the second.

Compared with RRIRRRPPRLPRPRPRPHLIPRP, RRIRCRPPRLPRPRPRPYIPPRP is lower in “shrunken log2 fold change” value: -0.293 for the first, -0.771 for the second.

First: RRIRRRPPRLPRPRPRPMVMPRP
Second: RRIRRRPPRLPRPRPRPQCHPRP
The “shrunken log2 fold change” value of the first is higher: 0.158 for the first, -0.0986 for the second.

RRIRHRPPRLPRPRPRPTQTPRP and RRIRTRPPRLPRPRPRPVTAPRP are within 0.2 log units of each other in “shrunken log2 fold change” value: -0.0128 for the first, -0.0612 for the second.

Compared with RRIRSRPPRLPRPRPRPDHIPRP, RRIRVRPPRLPRPRPRPLRTPRP is higher in “shrunken log2 fold change” value: -0.119 for the first, 0.246 for the second.

RRIRSRPPRLPRPRPRPMWFPRP and RRIRPRPPRLPRPRPRPFCMPRP are within 0.2 log units of each other in “shrunken log2 fold change” value: 0.14 for the first, -0.047 for the second.

Going from RRIRARPPRLPRPRPRPGSHPRP to RRIRGRPPRLPRPRPRPCAVPRP, the “shrunken log2 fold change” value rises from 0.101 to 0.66.

RRIRNRPPRLPRPRPRPGMGPRP and RRIRTRPPRLPRPRPRPVRVPRP are within 0.2 log units of each other in “shrunken log2 fold change” value: 0.307 for the first, 0.229 for the second.

Going from RRIRIRPPRLPRPRPRPGNSPRP to RRIRHRPPRLPRPRPRPCVDPRP, the “shrunken log2 fold change” value rises from -1.05 to -0.184.

First: RRIRSRPPRLPRPRPRPAYGPRP
Second: RRIRIRPPRLPRPRPRPQMFPRP
The “shrunken log2 fold change” value of the first is higher: -0.122 for the first, -0.65 for the second.

Going from RRIRCRPPRLPRPRPRPEVRPRP to RRIRGRPPRLPRPRPRPSPPPRP, the “shrunken log2 fold change” value rises from 0.24 to 0.569.

RRIRARPPRLPRPRPRPQHCPRP and RRIRCRPPRLPRPRPRPIQSPRP are within 0.2 log units of each other in “shrunken log2 fold change” value: 0.138 for the first, 0.0164 for the second.

Going from RRIRIRPPRLPRPRPRPLEPPRP to RRIRYRPPRLPRPRPRPCKYPRP, the “shrunken log2 fold change” value falls from 0.111 to -0.627.

Going from RRIRPRPPRLPRPRPRPIPMPRP to RRIRYRPPRLPRPRPRPFLHPRP, the “shrunken log2 fold change” value falls from -0.0493 to -0.786.

First: RRIRGRPPRLPRPRPRPEGVPRP
Second: RRIRNRPPRLPRPRPRPNHGPRP
The “shrunken log2 fold change” value of the first is higher: 1.48 for the first, -0.0113 for the second.

Compared with RRIRFRPPRLPRPRPRPSPIPRP, RRIRGRPPRLPRPRPRPQDCPRP is higher in “shrunken log2 fold change” value: -0.13 for the first, 0.0863 for the second.

First: RRIRDRPPRLPRPRPRPTNEPRP
Second: RRIRCRPPRLPRPRPRPITHPRP
The “shrunken log2 fold change” value of the first is higher: 0.265 for the first, -0.158 for the second.

RRIRRRPPRLPRPRPRPGVSPRP and RRIRKRPPRLPRPRPRPSQSPRP are within 0.2 log units of each other in “shrunken log2 fold change” value: 0.249 for the first, 0.28 for the second.

RRIRNRPPRLPRPRPRPNCWPRP and RRIRNRPPRLPRPRPRPLGRPRP are within 0.2 log units of each other in “shrunken log2 fold change” value: 0.241 for the first, 0.244 for the second.

Compared with RRIRKRPPRLPRPRPRPKDIPRP, RRIRNRPPRLPRPRPRPYETPRP is higher in “shrunken log2 fold change” value: -0.261 for the first, -0.0276 for the second.

First: RRIRMRPPRLPRPRPRPRFVPRP
Second: RRIRERPPRLPRPRPRPECRPRP
The “shrunken log2 fold change” value of the first is higher: 0.236 for the first, 0.0354 for the second.

Going from RRIRHRPPRLPRPRPRPALTPRP to RRIRQRPPRLPRPRPRPPCLPRP, the “shrunken log2 fold change” value falls from 0.0729 to -0.192.

RRIRKRPPRLPRPRPRPNPAPRP and RRIRVRPPRLPRPRPRPMWSPRP are within 0.2 log units of each other in “shrunken log2 fold change” value: -0.000888 for the first, -0.0513 for the second.

RRIRHRPPRLPRPRPRPAIEPRP and RRIRDRPPRLPRPRPRPHLKPRP are within 0.2 log units of each other in “shrunken log2 fold change” value: 0.0588 for the first, 0.143 for the second.

RRIRIRPPRLPRPRPRPNYLPRP and RRIRPRPPRLPRPRPRPHDEPRP are within 0.2 log units of each other in “shrunken log2 fold change” value: -0.171 for the first, -0.0869 for the second.

First: RRIRSRPPRLPRPRPRPLRVPRP
Second: RRIRRRPPRLPRPRPRPLRWPRP
The “shrunken log2 fold change” value of the first is higher: 1.29 for the first, 0.732 for the second.

Compared with RRIRMRPPRLPRPRPRPMHKPRP, RRIRLRPPRLPRPRPRPPNAPRP is lower in “shrunken log2 fold change” value: 0.413 for the first, 0.121 for the second.

RRIRNRPPRLPRPRPRPMWQPRP and RRIRWRPPRLPRPRPRPFTTPRP are within 0.2 log units of each other in “shrunken log2 fold change” value: -0.222 for the first, -0.0833 for the second.

RRIRDRPPRLPRPRPRPYTVPRP and RRIRQRPPRLPRPRPRPIPDPRP are within 0.2 log units of each other in “shrunken log2 fold change” value: -0.00865 for the first, -0.07 for the second.

First: RRIRMRPPRLPRPRPRPRGAPRP
Second: RRIRPRPPRLPRPRPRPYFVPRP
The “shrunken log2 fold change” value of the first is higher: 1.44 for the first, -0.488 for the second.

RRIRQRPPRLPRPRPRPYWSPRP was tested, and the “shrunken log2 fold change” value was -0.117.
